Source: publication PMC9723621

Columns and labels:
[1] = biological target: ArdK from plasmid R388 containing a C-terminal His tag (ArdKHT) (plasmid R388); test: SEC; S75 gel filtration of the purified protein in solution
[2] = biological target: T1, ArdK (SeMet, ArdKHT) (plasmid R388 (expressed in E. coli …, UniProt Q6I6B7 1-107)); test: X-ray crystallography (2.8 A); crystal structures only; protein in 20 mM Tris pH 7.5, 150 mM NaCl, 1 mM DTT, 1 mM EDTA (gel filtration buffer); complex and crystallization conditions not in the material; conditions: protein: recombinant; tags: C-terminal His; chain copies: 2; blunt
T1 sequence: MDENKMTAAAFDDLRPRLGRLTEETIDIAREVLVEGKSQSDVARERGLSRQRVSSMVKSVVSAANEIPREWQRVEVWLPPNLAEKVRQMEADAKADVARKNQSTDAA

[3] = biological target: T2, ArdK (ArdKHT) (plasmid R388 (expressed in E. coli …, UniProt Q6I6B7 1-107)); test: X-ray crystallography (2.6 A); crystal structures only; protein in 20 mM Tris pH 7.5, 150 mM NaCl, 1 mM DTT, 1 mM EDTA (gel filtration buffer); complex and crystallization conditions not in the material; conditions: protein: recombinant; tags: C-terminal His; chain copies: 2; blunt
T2 sequence: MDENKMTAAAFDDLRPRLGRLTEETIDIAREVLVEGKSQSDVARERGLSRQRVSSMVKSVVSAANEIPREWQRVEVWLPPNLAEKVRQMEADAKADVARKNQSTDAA

Molecule: ArdK from plasmid R388 containing a C-terminal His tag (ArdKHT) (natural protein)
- stoichiometry N [1]: 2

B1: DR operator, Pssb (DR_1/DR_2) (dsDNA)
DNA 1: GTATTGACACCTATTGACA
DNA 2: TGTCAATAGGTGTCAATAC
- binding result [2]: binds

B2: IR operator, n = 3 spacer (IR_1/IR_2) (dsDNA)
DNA 1: GTAATGTCAATATTTGACA
DNA 2: TGTCAAATATTGACATTAC
- binding result [3]: binds
